Assay results taken from patent US20240150495A1.

What was measured:
[1] = target: human ανβ3 integrin (Chemicon) (human) (UniProt P06756); test: ELISA on coated human ανβ3 integrin (1 ug/ml), binder at 10 µg/ml; positive control
[2] = target: human ανβ3 integrin (Chemicon) (human) (UniProt P06756); test: ELISA on coated human ανβ3 integrin (1 ug/ml), binder at 0.002 µg/ml; positive control
[3] = target: human ανβ3 integrin (Chemicon) (human) (UniProt P06756); test: ELISA on coated human ανβ3 integrin (1 ug/ml), binder at 0.010 µg/ml; positive control
[4] = target: human ανβ3 integrin (Chemicon) (human) (UniProt P06756); test: ELISA on coated human ανβ3 integrin (1 ug/ml), binder at 0.039 µg/ml; positive control
[5] = target: human ανβ3 integrin (Chemicon) (human) (UniProt P06756); test: ELISA on coated human ανβ3 integrin (1 ug/ml), binder at 0.156 µg/ml; positive control
[6] = target: human ανβ3 integrin (Chemicon) (human) (UniProt P06756); test: ELISA on coated human ανβ3 integrin (1 ug/ml), binder at 0.625 µg/ml; positive control
[7] = target: human ανβ3 integrin (Chemicon) (human) (UniProt P06756); test: ELISA on coated human ανβ3 integrin (1 ug/ml), binder at 2.500 µg/ml; positive control

Chain of human ανβ3 integrin (Chemicon) (human) (P06756 31-1048 limits assumed, chain 1 of 2): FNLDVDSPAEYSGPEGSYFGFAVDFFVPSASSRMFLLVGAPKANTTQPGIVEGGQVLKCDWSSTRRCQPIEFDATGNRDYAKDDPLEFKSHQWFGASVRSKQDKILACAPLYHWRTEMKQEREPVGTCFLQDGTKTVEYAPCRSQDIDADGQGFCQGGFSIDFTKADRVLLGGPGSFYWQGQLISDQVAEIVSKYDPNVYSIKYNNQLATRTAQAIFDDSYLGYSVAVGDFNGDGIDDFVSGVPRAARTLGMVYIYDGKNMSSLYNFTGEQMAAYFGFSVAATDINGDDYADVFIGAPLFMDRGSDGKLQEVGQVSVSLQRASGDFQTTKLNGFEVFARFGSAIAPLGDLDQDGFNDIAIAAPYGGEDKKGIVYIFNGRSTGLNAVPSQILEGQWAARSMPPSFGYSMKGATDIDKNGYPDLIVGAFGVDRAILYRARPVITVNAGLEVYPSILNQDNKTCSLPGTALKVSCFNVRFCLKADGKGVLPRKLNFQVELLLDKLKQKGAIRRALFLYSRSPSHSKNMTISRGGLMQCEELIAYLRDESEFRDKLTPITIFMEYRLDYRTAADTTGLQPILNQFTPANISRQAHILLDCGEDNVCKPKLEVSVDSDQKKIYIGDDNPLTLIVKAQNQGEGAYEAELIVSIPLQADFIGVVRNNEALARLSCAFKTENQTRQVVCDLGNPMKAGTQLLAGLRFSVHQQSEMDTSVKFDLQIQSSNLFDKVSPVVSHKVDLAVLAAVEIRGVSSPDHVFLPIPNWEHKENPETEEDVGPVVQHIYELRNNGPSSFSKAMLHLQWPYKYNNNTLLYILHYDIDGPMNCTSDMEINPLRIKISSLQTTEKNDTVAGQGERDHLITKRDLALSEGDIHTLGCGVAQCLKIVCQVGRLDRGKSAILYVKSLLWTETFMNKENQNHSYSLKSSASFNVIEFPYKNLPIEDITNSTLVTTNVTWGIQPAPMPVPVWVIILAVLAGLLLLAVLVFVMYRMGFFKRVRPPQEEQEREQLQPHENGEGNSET
Chain of human ανβ3 integrin (Chemicon) (human) (P05106 27-788 limits assumed, chain 2 of 2, further chain): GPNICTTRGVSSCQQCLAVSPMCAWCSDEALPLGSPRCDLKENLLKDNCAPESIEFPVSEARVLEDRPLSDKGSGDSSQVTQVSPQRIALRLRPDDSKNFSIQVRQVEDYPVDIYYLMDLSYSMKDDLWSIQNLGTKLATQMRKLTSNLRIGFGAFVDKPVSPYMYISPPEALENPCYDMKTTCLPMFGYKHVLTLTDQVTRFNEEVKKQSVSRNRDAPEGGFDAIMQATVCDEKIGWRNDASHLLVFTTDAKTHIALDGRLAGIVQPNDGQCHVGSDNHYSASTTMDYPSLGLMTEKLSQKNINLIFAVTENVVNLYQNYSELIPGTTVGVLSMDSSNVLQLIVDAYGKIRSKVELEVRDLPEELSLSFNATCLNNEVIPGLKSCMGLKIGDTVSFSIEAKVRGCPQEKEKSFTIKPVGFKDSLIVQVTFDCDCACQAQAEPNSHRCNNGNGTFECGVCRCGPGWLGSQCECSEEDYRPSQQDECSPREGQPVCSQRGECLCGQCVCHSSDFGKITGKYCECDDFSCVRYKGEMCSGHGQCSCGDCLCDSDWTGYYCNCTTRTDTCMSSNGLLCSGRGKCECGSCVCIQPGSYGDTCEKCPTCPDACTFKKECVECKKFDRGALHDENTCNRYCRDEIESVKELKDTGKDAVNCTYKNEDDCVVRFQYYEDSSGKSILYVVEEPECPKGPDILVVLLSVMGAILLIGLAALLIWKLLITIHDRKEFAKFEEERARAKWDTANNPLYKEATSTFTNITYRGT

## commercial mouse anti human ανβ3 integrin mAb LM609 (Chemicon) (antibody)
[1]
  OD 450: 0.647 OD 450
[2]
  OD 450: 0.077 OD 450
[3]
  OD 450: 0.157 OD 450
[4]
  OD 450: 0.391 OD 450
[5]
  OD 450: 0.626 OD 450
[6]
  OD 450: 0.657 OD 450
[7]
  OD 450: 0.644 OD 450
